{"source": "paper PMC4133399", "key": {"[1]": {"biological_target": "TLR2 protein of RAW264.7 murine macrophages (mouse (endogenous in RAW264.7)) (UniProt Q9QUN7)", "sequence (Q9QUN7 25-784)": "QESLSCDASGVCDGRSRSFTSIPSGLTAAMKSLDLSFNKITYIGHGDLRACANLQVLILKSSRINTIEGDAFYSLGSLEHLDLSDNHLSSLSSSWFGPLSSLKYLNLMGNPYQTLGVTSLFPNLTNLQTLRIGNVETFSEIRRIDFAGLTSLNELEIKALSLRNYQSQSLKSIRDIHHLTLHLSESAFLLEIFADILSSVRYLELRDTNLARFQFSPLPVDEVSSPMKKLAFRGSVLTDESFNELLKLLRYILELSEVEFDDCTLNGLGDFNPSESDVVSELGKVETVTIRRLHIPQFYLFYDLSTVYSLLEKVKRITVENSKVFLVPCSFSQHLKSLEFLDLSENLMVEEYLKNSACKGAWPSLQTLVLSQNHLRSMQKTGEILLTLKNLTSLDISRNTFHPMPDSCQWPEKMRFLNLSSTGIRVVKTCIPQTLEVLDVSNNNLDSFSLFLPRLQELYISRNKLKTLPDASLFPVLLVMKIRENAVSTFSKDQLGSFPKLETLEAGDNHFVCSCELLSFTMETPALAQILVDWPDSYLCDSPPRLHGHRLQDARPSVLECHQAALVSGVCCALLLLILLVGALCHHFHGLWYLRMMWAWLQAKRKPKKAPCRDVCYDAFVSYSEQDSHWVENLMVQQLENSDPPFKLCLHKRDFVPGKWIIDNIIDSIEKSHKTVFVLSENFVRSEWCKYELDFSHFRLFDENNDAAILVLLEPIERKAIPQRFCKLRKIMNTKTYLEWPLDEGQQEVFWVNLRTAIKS"}, "[2]": {"biological_target": "TLR2 protein of RAW264.7 murine macrophages (mouse (endogenous in RAW264.7)) (UniProt Q9QUN7)", "remark": "listed apart in the source"}, "[3]": {"biological_target": "GpA G83I TMD (LexA-TMD-MBP chimera)", "test": "GALLEX assay (β-gal activity of LexA-TMD-MBP chimera proteins)", "details": "n = 3; strong dimerization results in low β-gal activity; parent: est. 20; read off a plot"}, "[4]": {"biological_target": "NBD-labelled gp41 TMD peptide (HIV-1)", "test": "FRET or BRET; NBD-labelled gp41 TMD or mutant peptide (donor, 0.1 µM) in PC∶Chol 9∶1 LUVs, titrated with Rho-labelled TLR2 TMD peptide at 1∶40, 1∶20, 1∶10 and 1∶1 acceptor∶donor; decrease of donor emission at 530 nm"}, "[5]": {"biological_target": "NBD-labelled gp41 mutant peptide (HIV-1)", "test": "FRET or BRET; NBD-labelled gp41 TMD or mutant peptide (donor, 0.1 µM) in PC∶Chol 9∶1 LUVs, titrated with Rho-labelled TLR2 TMD peptide at 1∶40, 1∶20, 1∶10 and 1∶1 acceptor∶donor; decrease of donor emission at 530 nm"}, "[6]": {"biological_target": "LexA-TMD-MBP chimera protein with the TLR2 TMD (GALLEX) (UniProt O60603)", "sequence (O60603 21-784, stated change not applied)": "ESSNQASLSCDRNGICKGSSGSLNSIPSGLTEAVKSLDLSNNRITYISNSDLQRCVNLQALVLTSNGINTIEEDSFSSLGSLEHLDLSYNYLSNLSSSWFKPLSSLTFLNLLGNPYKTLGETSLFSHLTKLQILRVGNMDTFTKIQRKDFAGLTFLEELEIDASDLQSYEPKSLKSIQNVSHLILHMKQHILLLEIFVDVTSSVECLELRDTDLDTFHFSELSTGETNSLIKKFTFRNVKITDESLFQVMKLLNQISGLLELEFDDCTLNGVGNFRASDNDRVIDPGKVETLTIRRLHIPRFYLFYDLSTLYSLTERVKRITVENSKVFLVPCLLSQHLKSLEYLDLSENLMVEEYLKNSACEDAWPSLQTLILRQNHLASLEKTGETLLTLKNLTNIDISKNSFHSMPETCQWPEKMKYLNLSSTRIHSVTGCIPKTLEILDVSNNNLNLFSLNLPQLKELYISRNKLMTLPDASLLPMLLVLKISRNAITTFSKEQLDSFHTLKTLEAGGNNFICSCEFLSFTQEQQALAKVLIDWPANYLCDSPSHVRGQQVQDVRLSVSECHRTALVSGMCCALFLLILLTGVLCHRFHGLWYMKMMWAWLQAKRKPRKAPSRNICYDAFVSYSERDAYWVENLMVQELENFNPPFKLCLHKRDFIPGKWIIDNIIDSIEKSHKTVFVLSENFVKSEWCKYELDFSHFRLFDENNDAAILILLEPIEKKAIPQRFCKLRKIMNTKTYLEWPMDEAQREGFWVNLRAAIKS", "test": "GALLEX assay (β-gal activity of LexA-TMD-MBP chimera proteins)", "details": "n = 3; strong dimerization results in low β-gal activity; parent: est. 48; read off a plot"}}, "data": [{"substance": "unlabeled WT gp41 TMD peptide", "values": [{"measurement": "MCP1 mRNA expression in LTA-activated RAW264.7 cells (real-time PCR), decrease against non-treated cells", "setting": "[1]", "result": 45, "unit": "%"}, {"measurement": "TNFα mRNA expression in LTA-activated RAW264.7 cells (real-time PCR), decrease against non-treated cells", "setting": "[1]", "result": 72, "unit": "%"}, {"measurement": "ERK1,2 phosphorylation in RAW264.7 cells 20 minutes after LTA, cells pre-treated with the peptide for 2 hours (decrease of p-ERK band intensity)", "setting": "[2]", "result": "> 50", "unit": "%"}]}, {"substance": "LexA-TMD-MBP chimera protein with the Glycophorin A (GpA) TMD (GALLEX) G83I", "values": [{"measurement": "response", "setting": "[3]", "result": 100, "unit": "%"}]}, {"substance": "Rho-labeled TLR2 TMD peptide", "values": [{"measurement": "decrease of the NBD donor emission at 530 nm (FRET) at 1∶1 ratio", "setting": "[4]", "result": "> 60", "unit": "%"}, {"measurement": "decrease of the NBD donor emission at 530 nm (FRET)", "setting": "[5]", "result": "< 25", "unit": "%"}]}, {"substance": "LexA-TMD-MBP chimera protein with the gp41 wild type TMD (GALLEX) (from UniProt P04578) gp41 mutant", "values": [{"measurement": "response", "setting": "[6]", "result": 68, "unit": "%"}]}]}
